Among the data in article PMC8309162, “Identification and Functional Characterization of Genes Encoding Phenylacetaldehyde Reductases That Catalyze the Last Step in the Biosynthesis of Hydroxytyrosol in Olive” (Plants, 2021) are Km values, retold here.

This series relates to T1, O=CCc1ccc(O)c(O)c1.
T1 construct: tag cleavage not mentioned
Briefly: HPLC quantification of hydroxytyrosol formed. It counts as biochemical, Olea europaea. The note with it: 0.25-8 mM substrate, Michaelis-Menten, standard assay 5 mM NADPH, 50 mM Tris-HCl pH 8.0, 30 °C (pH of the kinetic run not stated; optimum pH 6.5).

OePAR1.1 (Olea europaea), sequence (chain, as listed by the source): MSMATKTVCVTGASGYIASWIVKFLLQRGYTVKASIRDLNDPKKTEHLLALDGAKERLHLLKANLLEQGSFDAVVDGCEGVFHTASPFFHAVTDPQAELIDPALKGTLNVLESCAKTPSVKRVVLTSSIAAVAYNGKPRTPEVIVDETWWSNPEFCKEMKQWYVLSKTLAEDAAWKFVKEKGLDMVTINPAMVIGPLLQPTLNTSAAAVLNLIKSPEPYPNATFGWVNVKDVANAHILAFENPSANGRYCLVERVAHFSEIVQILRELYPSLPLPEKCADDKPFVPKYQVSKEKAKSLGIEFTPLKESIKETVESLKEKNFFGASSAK
OePAR1.2 (Olea europaea), sequence (chain, as listed by the source): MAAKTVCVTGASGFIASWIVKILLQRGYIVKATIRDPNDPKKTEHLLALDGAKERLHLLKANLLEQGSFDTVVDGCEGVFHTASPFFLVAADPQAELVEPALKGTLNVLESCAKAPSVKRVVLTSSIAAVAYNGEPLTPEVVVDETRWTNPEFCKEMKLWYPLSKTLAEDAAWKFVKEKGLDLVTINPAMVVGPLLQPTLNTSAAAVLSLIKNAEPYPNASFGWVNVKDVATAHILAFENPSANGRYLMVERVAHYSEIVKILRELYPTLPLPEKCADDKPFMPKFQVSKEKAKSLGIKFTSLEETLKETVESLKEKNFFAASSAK

Consider OePAR1.1 (Olea europaea), for which the Km turned out to be 600 µM. OePAR1.2 (Olea europaea): the Km was determined as 800 µM.

What is called Km is the concentration of substrate that gives half-maximal velocity.
